T1: PbrNSC (Pyrus bretschneideri? (pear …, UniProt A0A5J6X514 1-400))
T1 sequence: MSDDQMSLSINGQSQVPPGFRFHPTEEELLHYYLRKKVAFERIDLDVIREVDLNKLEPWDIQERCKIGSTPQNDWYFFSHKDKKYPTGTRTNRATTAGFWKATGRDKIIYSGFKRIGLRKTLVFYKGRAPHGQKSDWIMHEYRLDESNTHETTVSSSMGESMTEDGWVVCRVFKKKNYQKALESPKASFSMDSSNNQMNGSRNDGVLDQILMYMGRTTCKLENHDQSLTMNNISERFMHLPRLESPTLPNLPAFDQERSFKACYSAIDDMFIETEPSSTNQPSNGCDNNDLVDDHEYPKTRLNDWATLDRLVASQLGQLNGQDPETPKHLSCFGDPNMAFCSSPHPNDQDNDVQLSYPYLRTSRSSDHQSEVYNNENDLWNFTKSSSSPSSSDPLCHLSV

T2: PbrARF13 (Pyrus bretschneideri? (pear …, UniProt UPI00202FA75D 49-757))
T2 sequence: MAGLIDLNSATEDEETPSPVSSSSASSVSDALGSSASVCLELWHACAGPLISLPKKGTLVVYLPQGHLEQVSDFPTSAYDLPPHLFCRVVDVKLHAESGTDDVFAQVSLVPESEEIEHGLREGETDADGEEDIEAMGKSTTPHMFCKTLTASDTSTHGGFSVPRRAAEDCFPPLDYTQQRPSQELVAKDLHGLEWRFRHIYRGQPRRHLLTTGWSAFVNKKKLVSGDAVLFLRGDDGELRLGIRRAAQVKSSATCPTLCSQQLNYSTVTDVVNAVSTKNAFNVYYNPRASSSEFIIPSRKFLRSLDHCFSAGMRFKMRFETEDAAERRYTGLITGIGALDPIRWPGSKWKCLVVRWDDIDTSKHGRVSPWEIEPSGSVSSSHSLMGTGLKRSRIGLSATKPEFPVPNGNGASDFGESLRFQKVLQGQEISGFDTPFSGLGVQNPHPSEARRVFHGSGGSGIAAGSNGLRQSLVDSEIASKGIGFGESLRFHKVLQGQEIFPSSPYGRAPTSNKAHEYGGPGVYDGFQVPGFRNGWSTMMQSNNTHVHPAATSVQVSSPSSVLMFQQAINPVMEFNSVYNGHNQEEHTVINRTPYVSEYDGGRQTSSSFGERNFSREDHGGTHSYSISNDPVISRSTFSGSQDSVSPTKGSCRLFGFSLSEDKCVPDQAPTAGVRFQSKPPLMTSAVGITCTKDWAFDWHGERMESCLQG


Columns and labels:
[1] = biological target: T1, PbrNSC; assay: EMSA
[2] = biological target: T2, PbrARF13; assay: EMSA
[3] = biological target: T2, PbrARF13; assay: competition

| Binder | binding result [2] | other results |
| --- | --- | --- |
| SNBE probe (dsDNA) DNA 1: ATACTTGAAACCTAAGTAA DNA 2: TTACTTAGGTTTCAAGTAT |  | binding result [1]: binds |
| AuxRE-2 probe (dsDNA) DNA 1: ATCATCTCTGTCTCTCTCTTGC DNA 2: GCAAGAGAGAGACAGAGATGAT | binds |  |
| AuxRE-2 unlabelled competitor (dsDNA) DNA 1: ATCATCTCTGTCTCTCTCTTGC DNA 2: GCAAGAGAGAGACAGAGATGAT |  | binding result [3]: binds |
| AuxRE-2 mutant probe (dsDNA) DNA 1: ATCATCTCGAGAGATCTCTTGC DNA 2: GCAAGAGATCTCTCGAGATGAT | no binding |  |
